The data set addresses Dengue virus envelope protein domain III (ED3), on intact DENV serotype 2 virions (Dengue virus 2 (New Guinea C), UniProt P14340 P14340:576-674). Put plainly: inhibition; plaque reduction on Vero cells, DENV2 NGC in human serum, 37 C. The conditions noted are these: protein: virion; tags: none. Here is the method: The in vitro inhibition of DENV through standard antiviral, plaque forming EC₅₀ assays was also examined. DENV viral particles were incubated with different concentrations of each inhibitor in human serum and the remaining infectivity was determined by a plaque reduction assay. The dose-dependent inhibition of DENV for the monovalent aptamer and each of the scaffold-aptamer complexes was examined (FIG. 5A). The EC₅₀ value (half maximal effective concentration) of the scaffold for DENV infection inhibition was 2 nM, whereas the EC₅₀ value of the monovalent aptamer was 15 μM (FIG. 5B).
For the in vitro inhibition of DENV (EC₅₀ and plaque assays), vero cells were seeded at a density of 3×10⁵ cells/3 mL MEM culture medium (with 10% FBS) in each well of a 6-well plate 72 h prior to infection. Approximately 200 plaque forming units of DENV serotype 2 (DENV2 NGC), after dilution in Hank's Balanced Salt Solution (HBSS) (GIBCO, Grand Island, N.Y.) including 0.4% (w/v) bovine albumin fraction V (BSA fraction V, GIBCO), were incubated at a 1:1 ratio in human serum (with or without an inhibitor). The mixtures were incubated in a 5% CO₂ incubator at 37° C. for 1 h. Then virus-inhibitor or virus-control mixtures were used directly to infect the confluent monolayer of Vero cells or diluted in MEM+2% FBS before being added onto the Vero cell monolayers. The inoculum was 100 μl/well. […]

The source of these data is patent US20230212643, “DNA NANOARCHITECTURES FOR PATTERN-RECOGNIZED […] OF DISEASES” (RENSSELAER POLYTECHNIC INSTITUTE, published 2023).

Chain of Dengue virus envelope protein domain III (ED3), on intact DENV serotype 2 virions (P14340 576-674, one chain of several): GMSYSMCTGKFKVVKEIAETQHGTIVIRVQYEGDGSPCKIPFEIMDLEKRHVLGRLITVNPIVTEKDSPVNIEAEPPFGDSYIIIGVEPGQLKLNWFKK

B1: monovalent ED3-binding DNA aptamer (ssDNA)
DNA: GCACCGGGAGGGAGGGAGGGCTTTT
As for B1, it took 15 µM to reach a half-maximal effect (EC50).
